Experimental data taken from patent US20160031958A1 (OREGON HEALTH AND SCIENCE UNIVERSITY, published 2016).
Changes are numbered by the printed parent chain. Names may count otherwise.

Key:
[1] = molecular target: T1, Pin1 (peptidyl-prolyl cis/trans isomerase), human (human, UniProt Q13526 1-163); test: co-immunoprecipitation from transfected HEK293T cells, Western blot
T1 construct: also called Human Pin1
Procedure: FIG. 4A is an image of a Western blot of co-immunoprecipitation analysis showing Pin1 is present in REST (810-910) immunoprecipitates in a phospho-dependent manner. HEK293T cells were transfected with Pin1 cDNA and either WT or mutant (S861A/S864A) FLAG-REST (810-910) or FLAG-control (595-694) peptide cDNAs (FIG. 3). After 48 hours, the cells were extracted and immunoprecipitated. Western blots were probed with the indicated antibodies.
To confirm this, HEK cells were transfected with FLAG-Pin1 and cDNAs encoding the 100 amino acid peptides described above containing an S861/S864 or an S861A/S864A sites. Pin1 was present in immunocomplexes of unmutated REST (810-910) reporter peptides, but not phosphorylation-resistant mutant S861A/S864A peptides (FIG. 4A). […]
Whole cell lysates were prepared and immunoprecipitated following the procedures in Ballas N et al, 2001 supra and Nesti E et al, Mol Biol Cell 15, 4073-4088 (2004); incorporated by reference herein. Western blots were performed by standard procedures using antibodies described below and analyzed using anti IgG conjugated to infrared dyes (ThermoFisher) on an Odyssey® infrared fluorescence imager (LiCor). […]

HA-REST S861A/S864A = molecular target: T2, HA-REST S861A/S864A (human, UniProt Q13127 1-1097); test: FLAG immunoprecipitation from transfected HEK293T cells, Western blot
T2 construct: mature; Expressed in HEK293T cells and tested in cell extracts; also called mutant S861A/S864A REST; not shown: HA tag
T2 sequence (looked up): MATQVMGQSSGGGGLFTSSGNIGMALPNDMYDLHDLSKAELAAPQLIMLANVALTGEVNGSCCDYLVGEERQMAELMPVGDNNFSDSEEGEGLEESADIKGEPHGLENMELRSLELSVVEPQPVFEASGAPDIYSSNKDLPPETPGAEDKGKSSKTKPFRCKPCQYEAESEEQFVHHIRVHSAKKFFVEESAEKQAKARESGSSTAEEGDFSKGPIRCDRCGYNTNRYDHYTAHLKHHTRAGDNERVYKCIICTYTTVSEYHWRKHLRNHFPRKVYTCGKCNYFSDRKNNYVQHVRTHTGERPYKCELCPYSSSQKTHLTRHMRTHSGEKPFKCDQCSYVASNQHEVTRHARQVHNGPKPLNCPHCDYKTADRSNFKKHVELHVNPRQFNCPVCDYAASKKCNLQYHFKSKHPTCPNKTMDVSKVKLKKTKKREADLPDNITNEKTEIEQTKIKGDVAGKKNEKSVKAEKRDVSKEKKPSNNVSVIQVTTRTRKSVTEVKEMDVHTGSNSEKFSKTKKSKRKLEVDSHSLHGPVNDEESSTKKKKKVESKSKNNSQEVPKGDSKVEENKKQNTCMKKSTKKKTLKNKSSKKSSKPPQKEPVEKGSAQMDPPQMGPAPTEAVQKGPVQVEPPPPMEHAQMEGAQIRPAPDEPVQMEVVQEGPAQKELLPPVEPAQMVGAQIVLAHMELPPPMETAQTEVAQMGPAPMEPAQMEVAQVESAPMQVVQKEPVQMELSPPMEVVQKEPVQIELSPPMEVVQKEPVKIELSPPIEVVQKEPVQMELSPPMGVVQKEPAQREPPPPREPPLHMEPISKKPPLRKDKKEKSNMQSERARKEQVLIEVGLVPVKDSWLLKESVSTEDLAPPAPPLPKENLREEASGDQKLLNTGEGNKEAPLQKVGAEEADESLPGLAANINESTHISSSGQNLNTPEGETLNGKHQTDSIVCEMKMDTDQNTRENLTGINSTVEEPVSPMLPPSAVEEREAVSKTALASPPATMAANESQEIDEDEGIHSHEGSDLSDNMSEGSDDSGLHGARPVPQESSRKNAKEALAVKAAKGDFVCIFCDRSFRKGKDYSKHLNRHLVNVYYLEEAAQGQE
Source text: CTDSP1 was first identified as a nuclear phosphatase targeting the C-terminus of RNA polymerase II (R HR et al, BMB Rep 47, 192-196 (2014); Feng Y et al, Biochem Biophys Res Commun 397, 355-360 (2010); and Zhang Y et al, Mol Cell 24, 759-770 (2006); all of which are incorporated by reference herein). Subsequently it was implicated in REST repression of neuronal gene expression in P19 embryonal carcinoma cells that have the capacity to differentiate into neurons (Visvanathan J et al, Genes Dev 21, 744-749 (2007); incorporated by reference herein). […] REST was detected in FLAG-immunocomplexes only when the site was unmutated or double-substituted with glutamate, a phosphorylation-mimic.
Whole cell lysates were prepared and immunoprecipitated following the procedures in Ballas N et al, 2001 supra and Nesti E et al, Mol Biol Cell 15, 4073-4088 (2004); incorporated by reference herein. Western blots were performed by standard procedures using antibodies described below and analyzed using anti IgG conjugated to infrared dyes (ThermoFisher) on an Odyssey® infrared fluorescence imager (LiCor). […] Infrared fluorescence was detected on the Odyssey® imager (LiCor) in the 700 nm channel. […]

[2] = molecular target: T3, HA-REST E1009A/S1013A/S1024A/S1027A/S1030A (human, UniProt Q13127 1-1097); test: GST pull-down on glutathione agarose from co-transfected HEK293T cells, Western blot
T3 construct: mature; Expressed in HEK293T cells and tested in cell extracts; also called E1009A/S1013/24/27/30A; REST degron mutant; not shown: HA tag
T3 sequence (looked up): T2 sequence (looked up) with A861S, A864S, E1009A, S1013A, S1024A, S1027A, S1030A
Procedure: HA-REST cDNAs were transfected into HEK293T cells along with GST-βTrCP, and FLAG-Dominant Negative Cull to stabilize REST. Cell extracts were collected on glutathione agarose and probed with anti-HA or anti-GST antibodies.
Whole cell lysates were prepared and immunoprecipitated following the procedures in Ballas N et al, 2001 supra and Nesti E et al, Mol Biol Cell 15, 4073-4088 (2004); incorporated by reference herein. Western blots were performed by standard procedures using antibodies described below and analyzed using anti IgG conjugated to infrared dyes (ThermoFisher) on an Odyssey® infrared fluorescence imager (LiCor). For detecting phosphorylated REST at S861/S864, cell extracts were prepared lacking phosphatase inhibitors. For phosphatase treatment, 75 μg of total protein was treated with 600 U lambda phosphatase (New England Biolabs) or with buffer alone at 30° C. for 1 h, according to the manufacturer's protocol. Thirty-five μg of treated protein were resolved by SDS-PAGE and Western blotted with the non-phospho-depleted anti REST phospho antibody (rabbit #101) at 1:500 in 3% BSA/1×TBS-0.5% Tween-20® overnight at 4° C., followed by anti-rabbit IgG-IR680 conjugated secondary antibody (Thermo Fisher) at 1:15000 in 5% milk/TBS-Tween for 1 hour at room temp. Infrared fluorescence was detected on the Odyssey® imager (LiCor) in the 700 nm channel. […]

T1 sequence (Q13526 whole entry): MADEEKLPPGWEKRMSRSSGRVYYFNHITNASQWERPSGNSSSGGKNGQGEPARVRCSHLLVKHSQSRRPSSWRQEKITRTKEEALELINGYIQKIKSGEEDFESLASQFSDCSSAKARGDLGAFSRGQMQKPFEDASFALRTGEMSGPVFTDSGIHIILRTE

B1: FLAG-REST (810-910)-GFP reporter peptide S861A/S864A (peptide)
chain: ISKKPPLRKDKKEKSNMQSERARKEQVLIEVGLVPVKDSWLLKESVSTEDLAPPAPPLPKENLREEASGDQKLLNTGEGNKEAPLQKVGAEEADESLPGLA
notes: also called mutant (S861A/S864A) FLAG-REST (810-910); phosphorylation-resistant mutant S861A/S864A peptide; not shown: N-terminal FLAG tag with linker; C-terminal eGFP tag (pEGFP-N1)
binding result [1]: no binding

B2: FLAG-CTDSP1 (enzyme, not shown: small tags and cut ends)
chain: MDSSAVITQISKEEARGPLRGKGDQKSAASQKPRSRGILHSLFCCVCRDDGEALPAHSGAPLLVEENGAIPKQTPVQYLLPEAKAQDSDKICVVIDLDETLVHSSFKPVNNADFIIPVEIDGVVHQVYVLKRPHVDEFLQRMGELFECVLFTASLAKYADPVADLLDKWGAFRARLFRESCVFHRGNYVKDLSRLGRDLRRVLILDNSPASYVFHPDNAVPVASWFDNMSDTELHDLLPFFEQLSRVDDVYSVLRQPRPGS
notes: also called C-terminal domain small phosphatase
binding result (HA-REST S861A/S864A): no binding

B3: GST-βTrCP (other, UniProt Q9Y297 1-605, looked up)
chain: MDPAEAVLQEKALKFMCSMPRSLWLGCSSLADSMPSLRCLYNPGTGALTAFQNSSEREDCNNGEPPRKIIPEKNSLRQTYNSCARLCLNQETVCLASTAMKTENCVAKTKLANGTSSMIVPKQRKLSASYEKEKELCVKYFEQWSESDQVEFVEHLISQMCHYQHGHINSYLKPMLQRDFITALPARGLDHIAENILSYLDAKSLCAAELVCKEWYRVTSDGMLWKKLIERMVRTDSLWRGLAERRGWGQYLFKNKPPDGNAPPNSFYRALYPKIIQDIETIESNWRCGRHSLQRIHCRSETSKGVYCLQYDDQKIVSGLRDNTIKIWDKNTLECKRILTGHTGSVLCLQYDERVIITGSSDSTVRVWDVNTGEMLNTLIHHCEAVLHLRFNNGMMVTCSKDRSIAVWDMASPTDITLRRVLVGHRAAVNVVDFDDKYIVSASGDRTIKVWNTSTCEFVRTLNGHKRGIACLQYRDRLVVSGSSDNTIRLWDIECGACLRVLEGHEELVRCIRFDNKRIVSGAYDGKIKVWDLVAALDPRAPAGTLCLRTLVEHSGRVFRLQFDEFQIVSSSHDDTILIWDFLNDPAAQAEPPRSPSRTYTYISR
notes: also called βTrCP-GST fusion; bTrCP; not shown: GST
binding result [2]: no binding
